Data on 21 variants can be found in the RNAGym collection of RNA variant scans (doi:10.1073/pnas.2313332121).

The labels stand for the following.
B1: TPR t1 (parent)
chain: GACCAAUCUGCCCUCAGAGCUCGAGAACAUCUUCGGAUGCAGAGGAGGCAGGCUUCGGUGGCGCGAUAGCGCCAACGUCCUCAACCUCCAAUGCAUCCCACCACAUGAUGAUGCCUGAAGAGCCUUGGUUUUUUG

Variants of B1 are the subject of this series. Kind of series: polymerase ribozyme fitness, log enrichment relative to wild type (log ratio); higher = more active; in vitro selection for triplet polymerase activity. The procedure, abridged: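 Streptavidin-bead capture of gel-excised extended constructs, followed by RT-PCR, closed a single triplicate in vitro selection round. That round began by annealing PCR-built, transcribed mutant libraries of each subunit of a heterodimeric triplet polymerase ribozyme with a biotinylated primer, the partner subunit and triplets, then incubating them frozen at −7 °C. After Illumina sequencing of inputs and outputs, genotypes needed ≥10 input reads and ≥1 read per output. Fitness is the base-2 logarithm of genotype enrichment over wild-type enrichment, using inverse-variance-weighted replicate averages.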
Consider GACCAAUCUGUCCUCAGAGCUCGAGAACAUCUUCGGAUGCAGAGGAGGCAGGCUUAGGUGGCGCGAUAGCGCCAACGUCCUUAACGUCCAAUGCAUCCCACCACAUGAUGAUGCCUGAAGAGCCUUGGUUUUUUG, for which the “polymerase ribozyme fitness (log ratio)” value is -1.73. In the case of GACCAAUCUGUCCUCAGAGCUCGAGAACAUCUUCGGAUGCAGAGGAGGCAGGCUUAGGUGGCGCGAUAGCGCCAACGUCCUCAACCUCCAAUGCAUCCCACCACAUGAUGAUGCCUGAAGAGCCUUGGUUUUUUG, the “polymerase ribozyme fitness (log ratio)” value is -0.322. As to GACCAAUCUGUCCUCAGAGCUCGAGAACAUCUUCGGAUGCAGAGGAGGCAGGCUUGGGUGGCGCGAUAGCGCCAACGUCCUCAACCUCCAAUGCAUCCCACCACAUGAUGAUGCCUGAAGAGCCUUGGUUUUUUG, the “polymerase ribozyme fitness (log ratio)” value was -1.1. As to GACCAAUCUGUCCUCAGAUCUCGAGAACAUCUUCGGAUGCAGAGGAGGCAGGCAUCGGUGGCGCGAUAGCGCCAACGUCCUCAACCUCCAAUGCAUCCCACCACAUGAUGAUGCCUGAAGCGCCUUGGUUUUUUU, the “polymerase ribozyme fitness (log ratio)” value is -2.38.

As for GACCAAUCUGUCCUCAGAGCUCGAGAACAUCUUCGGAUGCAGAGGAGGCAGGCUUCGGUGGCGCGAUAGCGCCAACGUCCUCAACCUCCAAUGCAUCCCACCACAUGAUGAUGCAUGAAGAGCCUUGGUUUUUUG, the “polymerase ribozyme fitness (log ratio)” value was -0.908. Consider GACCAAUCUGUCCUCAAAGCUCGAGAACAUCUUCGGAUGCAGAGGAGGCAGGCUUCGGUGGCGCGAUAGCGCCAACGUCCUCAACCUCCAAUGCAUCCCACCACAUGAUGAUGCCUGAAGAGCCUUGGUUUUUUG, for which the “polymerase ribozyme fitness (log ratio)” value was -3. The result for GACCAAUCUGUCCUCAGAGCUCGAGAACAUCUUCGGAUGCAGAGGAGGCAGGCUUCGGUGGCGCGAUAGCGCCAACGUCCUCAAACUCCAAUGCAUCCCACCACAUGAUGAUGCCUGAAGAGCCUUGGUUUUUUG reads -2.42.

GACCAAUCUGUCCUCAGAGCUCGAGAACAUCUUCGGAUGCAGAGGAGGCAGGCUUCGGUGGCGCGAUAGCGCCAACGUCCUUAACCUCCAAUGCAUCCCACCAAAUGAUGAAGCCUGAAGAGCCUUGGUUUUUUG: the “polymerase ribozyme fitness (log ratio)” value turned out to be 0.128.

For the variant GACCAAUCUGUCCUCAAAGCUCGAGAACAUCUUCGGAUGCAGAGGAGGCAGGCUUCGGUGGCGUGAUAGCGCCAACGUCCUCCCCCUCCAAUGCAUCCCACCACAUGAUGAUGCCUGAGGAGCCUUGGUUUUUUG, the “polymerase ribozyme fitness (log ratio)” value was -0.999.

For the variant GACCAAUCUGUCCUCAGAGCUCGAGAACAUCUUCGGAUGCAGAGGAGGCAGGCUUCGGUGGCGCGAUAGCGCCAACGUCCUGAACCUCCAAUGCAUCCCACAACAUGAUGAAGCCUGAACAGCCGUGGUUUUUUG, the “polymerase ribozyme fitness (log ratio)” value was -5. Turning to GACCAAUCUGUCCUCAGAGCUCGAGAACAUCUUCGGAUGCAGAGGAGGCAGGCUUCGGUGGCGCGAUAGCGUCAACGUCCUCAACCUCCAAUGCAUCCCACCACAUGAUGAUGCCUGAAGAGCCUUGGUUUUUUG, the “polymerase ribozyme fitness (log ratio)” value was -0.485. Take GACCAAUCUGUCCUCAGAGCUCGAGAACAUCUUCGGAUGCAGAGGAGGCAGGUUUCGGUGGCGCGAUAUCGCCAUCGUCCUCAGCCUCCAAUGCAUCCCACCACAUGAUGAUGCCUGAAGAGCCUUGGUUUUUUG: the “polymerase ribozyme fitness (log ratio)” value is -1.1. As to GACCAAUCUGUCCUCAGAGCUCGAGAACAUCUUCGGAUGCAGAGGAGGCAGGCUUCGGUGGCGCGAUAGCGCCAACGUUCCCAACCUCCAAUGAAUCCCACCACAUGAUGAUGCCUGAAUAGCCUUGGUUUUUUG, the “polymerase ribozyme fitness (log ratio)” value is -4.75.

GACCAAUCUGUCCUCAGAGCUCGAGAACAUCUUCGGAUGCAGAGGAGGCAGGCUUCGGUGGCGCGAUAGCGCCAACGUCCUCAACCUCCAAUGCAUCCCACCACAUGAUGAUGCCUGAAGAGCGUUGGUUUUUUG: the “polymerase ribozyme fitness (log ratio)” value worked out at 1.46. With GACCAAUCUGUCCUCAGAGCUCGAGAACAUCUUCGGAUGCAGAGGAGGCAGGCUUCGGUGGCGCGAUAGCGCCAACGUCCUCAACCUCCAAUGCAUCCCACCACAUGAUGAUGCCUGAAGAGCUUUGGUUUUUUG, the “polymerase ribozyme fitness (log ratio)” value was determined as 1.63.

As to GACCAAUCUGUCCUCAGAUAUCGAGAACAUCUUCGGAUGCAGAGGAGGCAGGCUUCGGUGGCGCGAUAGCGCCAACGUCCUCAACCUCCAAUGCAUCCCACCAUAUGAUGAUGCCUGAAUAGCCUUGGUUUUUUG, the “polymerase ribozyme fitness (log ratio)” value is -4.29. Take GACCAAUCUGUCCUCAGAGCUCGAGAACAUCUUCGGAUGCAGAGGAGGCAGGCUUCGGUGGCGCGAUAGCGCCAACGUGCUCAACCUCCAAUUCAUCCCACCACAUGAUGAUGCCUGAAGAGCCUUGGUUUUUUG: the “polymerase ribozyme fitness (log ratio)” value is -3.61.

For GACCAAUCUGUCCUCAGAGCUCGAGAACAUCUUCGGAUGCAGAGGAGGCAGGGUUUGGUGGCGCGAUAGCGCCAACGUCCUCAACCCCCAAUGCAUCCCACCACAUGAUGAUGCCUUAAAAACCUUGGUUUUUUG, the “polymerase ribozyme fitness (log ratio)” value was -3.01.

Take GACCAAUCUGUCCUCAGAGCUCGAGAACAUCUUCGGAUGCAGAGGAGGCAGGCUUCGGUGGCGCGAUAGCGCGAACGUCCUCAACCUCCAAUGCAUCCCACCACAUGAUGAUGCCUGAAGAGCCUUGGUUUUUUG: the “polymerase ribozyme fitness (log ratio)” value was 0.0999. Turning to GACCAAUCUGUCCUCAGAGCUCGAGAACAUCUUCGGAUGCAGAGGAGGCAGGCUUCGGUGGCGCGAUAGCGCUAACGUCCUCAACCUCCAAUGCAUCCCACCACAUGAUGAUGCCUGAAGAGCCUUGGUUUUUUG, the “polymerase ribozyme fitness (log ratio)” value was -0.94. As for GACCAAUCUGUCCUCAGAGCUCGAGAACAUCUUCGGAUGCAGAGGAGGCAGGAUUCGGUGGCGCGAUAUCGCCAACGUCCUCAACCUCCAAUCUAUCCCACCACAUGAUGAUGCCUGAAGAGCCUUGGUUUUUUG, the “polymerase ribozyme fitness (log ratio)” value is -0.279.
